According to patent US20240190920A1, “BECLIN 1-TARGETED STAPLED PEPTIDE AND PHARMACEUTICAL COMPOSITION” (Shenzhen Research Institute of the Hong Kong Polytechnic …, priority 2021, published 2024):
Bridge positions count the residues as written; N and C are the ends. Square brackets hold non-standard residues; d marks the D form. R8 = C=CCCCCCC[C@@](C)(N)C(=O)O; S5 = C=CCCC[C@](C)(N)C(=O)O

Experiments:
[1] = molecular target: T1, Beclin 1 coiled coil domain (human Beclin 1, residues 176-268) (human), Q14457; assay: ITC, peptide titrated into Beclin 1 coiled coil domain, 25 C, one-site model
T1 sequence (Q14457 176-268 limits assumed): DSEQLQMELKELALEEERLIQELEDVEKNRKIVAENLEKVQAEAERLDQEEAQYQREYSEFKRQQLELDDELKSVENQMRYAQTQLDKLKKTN

[2] = molecular target: T1, Beclin 1 coiled coil domain (human …); assay: ITC, compared with Tat-SP4

Binder	Kd [1]	fold stronger binding affinity than Tat-SP4 [2]
Ac-YGRKKRRQRRRVLFN[R8]LVDVIK[S5]RKV-NH2 (staple 16-23; SMILES CC[C@H](C)[C@@H]1NC(=O)[C@H](C(C)C)NC(=O)[C@H](CC(=O)O)NC(=O)[C@H](C(C)C)NC(=O)[C@H](CC(C)C)NC(=O)[C@](C)(NC(=O)[C@H](CC(N)=O)NC(=O)[C@H](Cc2ccccc2)NC(=O)[C@H](CC(C)C)NC(=O)[C@@H](NC(=O)[C@H](CCCNC(=N)N)NC(=O)[C@H](CCCNC(=N)N)NC(=O)[C@H](CCCNC(=N)N)NC(=O)[C@H](CCC(N)=O)NC(=O)[C@H](CCCNC(=N)N)NC(=O)[C@H](CCCNC(=N)N)NC(=O)[C@H](CCCCN)NC(=O)[C@H](CCCCN)NC(=O)[C@H](CCCNC(=N)N)NC(=O)CNC(=O)[C@H](Cc2ccc(O)cc2)NC(C)=O)C(C)C)CCCCCCC=CCCC[C@@](C)(C(=O)N[C@@H](CCCNC(=N)N)C(=O)N[C@@H](CCCCN)C(=O)N[C@H](C(N)=O)C(C)C)NC(=O)[C@H](CCCCN)NC1=O) [i7-01s-31 (Ac-[Tat]-VLFN(R8)[…](S5)RKV-NH2)]	0.33 µM	10 fold
Ac-YGRKKRRQRRRALIQ[R8]QEDVEK[S5]RKR-NH2 (staple 16-23; SMILES CC[C@H](C)[C@H](NC(=O)[C@H](CC(C)C)NC(=O)[C@H](C)NC(=O)[C@H](CCCNC(=N)N)NC(=O)[C@H](CCCNC(=N)N)NC(=O)[C@H](CCCNC(=N)N)NC(=O)[C@H](CCC(N)=O)NC(=O)[C@H](CCCNC(=N)N)NC(=O)[C@H](CCCNC(=N)N)NC(=O)[C@H](CCCCN)NC(=O)[C@H](CCCCN)NC(=O)[C@H](CCCNC(=N)N)NC(=O)CNC(=O)[C@H](Cc1ccc(O)cc1)NC(C)=O)C(=O)N[C@@H](CCC(N)=O)C(=O)N[C@]1(C)CCCCCCC=CCCC[C@@](C)(C(=O)N[C@@H](CCCNC(=N)N)C(=O)N[C@@H](CCCCN)C(=O)N[C@@H](CCCNC(=N)N)C(N)=O)NC(=O)[C@H](CCCCN)NC(=O)[C@H](CCC(=O)O)NC(=O)[C@H](C(C)C)NC(=O)[C@H](CC(=O)O)NC(=O)[C@H](CCC(=O)O)NC(=O)[C@H](CCC(N)=O)NC1=O) [i7-01s-54 (Ac-[Tat]-ALIQ(R8)[…](S5)RKR-NH2)]	311 µM	–
